The record followed here is patent US20170322229A1, “HIGH AFFINITY VITAMIN D3 BINDING PROTEINS” (UNIVERSITY OF WASHINGTON, priority 2015, published 2017).

Assay [1] is described as follows: Yeast surface display and flow cytometry binding/titration against 25-D3. The conditions noted are these: for Kd: yeast surface display, 25-D3. The source says:
We discovered another binder for 25-D3, referred to here as CDL2. […] It was further evolved to investigate and improve its specificity and affinity. To test a broader number of mutants, CDL2 was optimized using ep-PCR as well as small computationally guided library. The computationally guided library was constructed by docking the ligand into the binding site and optimizing the interactions between 25-D3 and the protein using ROSETTA®. To increase the sampling of the ligand, short MD simulations were performed to make small perturbations of the backbone. These computational variants, as well as variants generated via error prone mutagenesis, were expressed on yeast and sorted via fluorescence activated cell sorting. Individual designs sequenced from various rounds of mutagenesis and sorting were sequenced during the evolution to inform further design and mutagenesis strategies. One evolved variant, CDL2.1, incorporated 10 mutations scattered around the protein. Another evolved variant CDL2.2 is the most advanced variant from the directed evolution efforts.
(§1) Binding activity yeast surface display and flow cytometry, according to methods previously described by Wittrup et al.
(In general: Flow cytometry measures light scatter and fluorescence of single cells or particles in a stream.)

A short description of assay [2]: Fluorescence polarization binding of 25-D3. The following applies: read-out: Approximate Kd. (Fluorescence polarisation rises when a labelled molecule tumbles more slowly, as on binding a larger partner.)
Assay [3] can be described thus: Approximate Kd summary (Table 4) / measured binder ranking, method not stated. The assay is classed as binding. The following applies: Ligand Target 25-hydroxycholecalciferol.
Assay [4] in a line: Yeast surface display and flow cytometry titration against vitamin D3. Type of assay: binding. The conditions noted are these: for specificity for 25-D3 over vitamin D3: preference for 25-D3 over non-hydroxylated vitamin D3.
From the text: as §1

B1: CDL2: designed 25-D3 binding protein based on scaffold PDB ID 3HX8, a putative ketosteroid isomerase (protein)
chain: GQSAKEAIEAALADFVKAYNSKDAAGVASKYMDDAAIFPLDMARVDGRQNIQKLWQGLMDMGVSELKLTTLDVQESGDFAFESGSFSLKGPGKDSKLVDVAGKYVVVWRKGQDGGWKLYRTISNLDPAK
In the case of B1, the “binding signal for 25-D3 on yeast” value in assay [1] (yeast display and flow cytometry, biotinylated 25-D3) is on record as “exceptionally strong signal”. The Kd – broadly, the free concentration of one partner at which half of the binding sites on the other are occupied at equilibrium, for simple one-to-one binding – in assay [2] was around 2100 nM; in assay [3] it was 2100 nM.

B2: CDL1.1: evolved variant of CDL1 with mutations P46S, R55A, H68P, G136V; truncated as well as mutated from 6234 (protein)
chain: NLYFQGHMNAKEILVHALRLVENGDARGFCDLFHPEGVMEFPYAPSGYKTRFEGAETIWAHMRLFPEPLTIRFTDVQFYETADPDLAIGEFHGDGVATVSGGKLAQDFISVLRTRDGQILLSRIFWNPLRHLEALV
Consider B2, for which the values for the Kd in assay [1] (read-out: Approximate Kd) and in assay [3] were around 229 nM and 229 nM, respectively. Further, the “specificity for 25-D3 over vitamin D3” value in assay [4] was “about two fold over CDL1”.

B3: CDL1: designed 25-D3 binder based on scaffold PDB ID 1Z1S, a putative isomerase; 8 mutations from 1Z1S (protein)
chain: SGREQGHMNAKEILVHALRLVENGDARGFCDLFHPEGVMEFPYAPPGYKTRFEGRETIWAHMRLFPEHLTIRFTDVQFYETADPDLAIGEFHGDGVATVSGGKLAQDFISVLRTRDGQILLSRIFWNPLRHLEALGGVEAAAKIVQGA
In the case of B3, the Kd in assay [1] (read-out: Kd) is around 2000 nM; in assay [3], 1300 nM. The “specificity for 25-D3 over vitamin D3” value in assay [4] is reported as “did not show a significant preference”.

B4: CDL2.2: slightly truncated from HH35.v1/CDL2.1; most advanced variant from the directed evolution efforts (protein)
chain: QSAKEAIEAALADFVKVYNSKDAAGVASKYMDDAAIFPLDMAPVDGRQNIQKLWQGLMDMGVSEPKFTTLNVQKSGDFAFESGSFSLKGPGKDSKLVGIAGIYVEVWRKGQDGGWKLYRTIANLGP
With B4, in assay [2], the Kd is around 188 nM.

B5: CDL2.1: evolved variant of CDL2 incorporating 10 mutations scattered around the protein (protein)
chain: DQSAKEAIEAALADFVKVYNSKDAAGVASKYMDDAAIFPLDMAPVDGRQNIQKLWQGLMDMGVSEPKFTTLNVQKSGDFAFESGSFSLKGPGKDSKLVDIAGIYVEVWRKGQDGGWKLYRTIANLDPAK
Consider B5, for which the Kd was around 319 nM in assay [1] (read-out: Approximate Kd); around 1900 nM in assay [4] (yeast surface display, vitamin D3, read-out: Approximate Kd); 319 nM in assay [3].
